Data from the supplement of paper PMC10724198.
± gives the standard deviation of the averaged measurements.

The sequences below were run on Saccharomyces cerevisiae (assay: protein stability index of tFT-peptide fusion (C-terminal peptide) (PSI (0-1 scale)); higher = more stable (slower turnover)). Conditions: genetic background: wild type; temperature: 30 C.
Method: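 Multiplexed protein stability (MPS) profiling in S. cerevisiae. Random 12-aa peptides (tFT-X12 library) are fused to the C-terminus of a sfGFP-mCherry tandem fluorescent timer, after mCherry and a GGGS linker. Cells are FACS-sorted into 8 mCherry/sfGFP bins and deep-sequenced. The protein stability index (PSI) is the read-weighted bin average, scaled from 0 (unstable) to 1 (stable). Only peptides with >10 reads are reported; cells were grown at 30 °C in SC-His with glucose.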
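Also: PSI is a weighted mean of sequencing reads over stability bins, variants kept only with over 10 reads, mCherry proximal and sfGFP distal, peptide attached via GGGS linker.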

Sequence	protein stability index
LTAKDSRGLFRP	0.706 ± 0.012
GGPASSGLMDGY	0.698 ± 0.0062
HTAYPPPHRTPP	0.629 ± 0.11
GESIIQTCLNSI	0.845 ± 0.017
CPRWHDCLACIE	0.665 ± 0.011
HQVPSPPPPGPL	0.707 ± 0.2
KIKSEFNMIGKN	0.693 ± 0.091
MCWGSAEAMGFR	0.663 ± 0.014
PRYSLPTLLSSR	0.678 ± 0.051
RGIILSSSGFVW	0.735 ± 0.012
SAPYLSTTLSVK	0.671 ± 0.011
PSPSPPPPPPGL	0.681 ± 0.064
LLKNPFRGTSVF	0.737 ± 0.11
LVLTLAPWILFD	0.6784 ± 0.0015
SERVCHESCLVG	0.68 ± 0.047
LFLSLFLFPSLS	0.57 ± 0.03
PPPPSPFPLPSP	0.6846 ± 0.0024
HFPFYPSAPPPF	0.713 ± 0.056
AGPGGSGGAGEP	0.68 ± 0.026
RLETKNITRKHI	0.681 ± 0.018
LAGRARLVMCPR	0.639 ± 0.0068
VTISLGVGGGMQ	0.725 ± 0.048
RGSWSDEFWREG	0.84 ± 0.056
AGGGARLGVGRA	0.637 ± 0.065
PPPPPRAAPPPP	0.668 ± 0.061

Sequence	protein stability index
AARWHEPLSRER	0.699 ± 0.029
TSIAKRNGLLPG	0.719 ± 0.13
PPPRPPALPPLP	0.69 ± 0.016
PPPNPFRGPFPL	0.663 ± 0.035
GAGGVGGTSGGK	0.675 ± 0.084
PDTVRALMRGYK	0.721 ± 0.016
PFLLDSMRALGL	0.737 ± 0.082
PRLVFSVSSLGL	0.7 ± 0.038
DIKKSTKGQNQQ	0.602 ± 0.025
SPLLFLLPPAAP	0.692 ± 0.062
TSAPDSPVPSLP	0.695 ± 0.015
IEKKNKTKKKRI	0.748 ± 0.13
CLGGPAAWPLFS	0.6778 ± 0.0025
GSTNNHEVTENI	0.688 ± 0.013
SSTEYYDIRKIR	0.675 ± 0.025
LLFYSVPLSSSF	0.655 ± 0.072
MSMVVCHGGGGL	0.663 ± 0.017
KIKKKKKKNKEH	0.591 ± 0.028
GEGGGLRARQKP	0.673 ± 0.057
DLPDGRRFIVIG	0.682 ± 0.08
KKYYCRKLNTKK	0.715 ± 0.017
FLGGWVCGWPQF	0.772 ± 0.15
LVVSHMSQPISM	0.64 ± 0.03
LFLYPFCVGGFL	0.714 ± 0.016
KKYEKNGKSSQK	0.685 ± 0.1

Sequence	protein stability index
VEERGCCGEAEG	0.72671 ± 0.00023
TCLWVCARGFGG	0.693 ± 0.021
EVTAQLCADKEP	0.564 ± 0.12
ADLTTPHPDPRP	0.674 ± 0.0096
PLSDRGGRFPML	0.7 ± 0.053
KWCQSNNIVKRT	0.7 ± 0.011
YKGQVKKNNPQC	0.726 ± 0.033
KEARHCAQRKDI	0.546 ± 0.062
RSGRSLVGREGG	0.703 ± 0.059
IRRHNVELSGYL	0.641 ± 0.022
ITALSSPVRDKL	0.646 ± 0.061
VCIAKCKYNKTS	0.606 ± 0.015
VGGGRAALRWYG	0.673 ± 0.018
FGGSTPVLKPTQ	0.719 ± 0.019
HTYQAAFRSHAI	0.6544 ± 0.00072
FYLRRNILGQDC	0.695 ± 0.0096
KQLGMTCRYISK	0.692 ± 0.022
NRGHWECIRVQR	0.582 ± 0.059
RGSVDGTLQKPG	0.6691 ± 0.00087
AEKSYRYIYGKT	0.669 ± 0.029
KREKENIAKSSV	0.718 ± 0.078
APPPPFCHAPTS	0.6366 ± 0.00082
PVDAAPCSPSGL	0.663 ± 0.041
RGGPSPAASSRG	0.725 ± 0.057
TWKARFFMDLGN	0.672 ± 0.12

Sequence	protein stability index
PRFFTRYRCYSA	0.793 ± 0.064
SGPRVCPGMHWQ	0.651 ± 0.013
PARSAGPLNARS	0.758 ± 0.013
GEAVAGRRQESP	0.695 ± 0.073
DRGSLVASGGGG	0.713 ± 0.015
DICCGLCGLLPR	0.658 ± 0.079
PFFFLPPSRPRP	0.671 ± 0.023
ANEAAYICKGNG	0.682 ± 0.039
SRPPAPPPLPAP	0.726 ± 0.025
PGGRTVLCGTVT	0.651 ± 0.0044
FLVNVIRSCKGE	0.685 ± 0.059
GTGQSRAEGARP	0.672 ± 0.015
LRGACWLARTRT	0.677 ± 0.018
CPRLWGGRLLMR	0.5867 ± 0.003
YANFFVVGELGP	0.687 ± 0.02
VCGRTHRVLPTY	0.641 ± 0.015
SYKSLGLVEFRV	0.712 ± 0.054
VGLGAGGTSLMR	0.571
CFCSWFWDLVLC	0.628 ± 0.0076
VAGVLVFGKVGG	0.694 ± 0.043
KNKKRDKYRKKT	0.607 ± 0.011
IFRLFAFHENRG	0.679 ± 0.051
HRVPRLRGQNPP	0.635 ± 0.0073
VVSSFVCLLRRG	0.654 ± 0.055
SERKRMQRRVVY	0.655 ± 0.021

Sequence	protein stability index
PPSLPRPPAFAP	0.689 ± 0.023
SPVRLSSVPRPY	0.683 ± 0.019
VVGGGDWRWGVW	0.7709 ± 0.0046
DSFSEFDSSPVI	0.727 ± 0.03
PPSPPPPLPPPA	0.6897 ± 0.0041
LRLSSFSFSRLS	0.701 ± 0.16
STEHAPDLKSER	0.695 ± 0.077
PHSLLPSSAPRN	0.696 ± 0.024
CRRCRIHSGIYD	0.672 ± 0.034
QVAIEKTTHVQE	0.637 ± 0.13
LYSDLLTDDKNC	0.666 ± 0.023
PPSWLPLLPPPP	0.688 ± 0.078
LYGILSCNSGCG	0.672 ± 0.035
EGGKRGGTPITK	0.654 ± 0.025
EGGIKGKKVRTW	0.66 ± 0.0087
PSPICFYPLGAS	0.71 ± 0.034
NKNTEMNKTQWR	0.702 ± 0.03
GKSLIKRYANKI	0.7436 ± 0.0019
KKTDKSNKVKRI	0.669 ± 0.013
DPVVSQLSSVPA	0.656 ± 0.041
KKKKKIHIKNKK	0.707 ± 0.052
EMGGLKACRGVG	0.56565 ± 0.00029
QNIRTELTSPRV	0.6596 ± 0.0016
PPPLPPPPPAPS	0.692 ± 0.0096
ALLSFVVSSGPA	0.675 ± 0.026

Sequence	protein stability index
TILLNWSQVHME	0.7 ± 0.016
APGACWKERWVR	0.737 ± 0.037
KKYNRNRIKKAR	0.7 ± 0.08
LARLPPPSLSRV	0.713 ± 0.055
FATPDGFVSLWF	0.774 ± 0.14
LSTPFFFVPLTL	0.621 ± 0.007
PRIWDLVDIGTL	0.735 ± 0.022
LCSGRGGRVCGG	0.669 ± 0.038
EKKKKTIRKRMT	0.6691 ± 0.0018
PPPPFPPPSPPL	0.7147 ± 0.0063
GPVCVVSGVFTV	0.665 ± 0.072
EFVGSCPLCNTF	0.622 ± 0.015
LYKYPKRCVDIG	0.676 ± 0.057
LAAGPSERTART	0.685 ± 0.052
FGVQTFIGPTIV	0.677 ± 0.012
PPFSHLPYLLPP	0.685 ± 0.015
VILGRGGSICKV	0.795 ± 0.046
FQNFTLSQEQSE	0.717 ± 0.014
ITRAVLPARLFR	0.705 ± 0.013
HSWSLLFSPSFP	0.658 ± 0.082
AFPSPPATPSSQ	0.645 ± 0.079
